First the molecules themselves.
T1: human Glutaminase Interacting Protein (GIP) (human, UniProt O14907 1-124)
T1 sequence (looked up): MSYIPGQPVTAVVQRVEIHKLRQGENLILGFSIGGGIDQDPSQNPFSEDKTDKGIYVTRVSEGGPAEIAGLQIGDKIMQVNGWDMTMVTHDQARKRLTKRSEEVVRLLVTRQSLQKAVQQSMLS

The first assay deals with T1, human Glutaminase Interacting Protein …. Briefly: NMR titration.
ESSVDLLDG [ESSVDLLDG peptide (synthetic)]: the binding result is “binds”.
Regarding ASSSVDDMA [ASSSVDDMA peptide (synthetic)], the binding result is on record as “binds”.
Same read-out and setting: the same measure for GSSLDVTDN [GSSLDVTDN peptide (synthetic)]: “binds”.
For the molecule GSGTDLDAS [GSGTDLDAS peptide (synthetic)], the binding result is recorded as “binds”.

The target is the same in a further assay. The experiment in a line: phage display selection.
GSSVDLVGD [phage clone displaying GSSVDLVGD]: the binding result was “binds”.
As to DSNLDVSVE [phage clone displaying DSNLDVSVE], the binding result is “binds”.
GSSSVDVDG [phage clone displaying GSSSVDVDG]: the binding result is listed as “binds”.
GSGTDLDAS [phage clone displaying GSGTDLDAS]: the binding result is listed as “binds”.
For GTNLDGNGD [phage clone displaying GTNLDGNGD], the binding result is on record as “binds”.
On the same count and under the same terms, the same measure for GSSLDVTDN [phage clone displaying GSSLDVTDN]: “binds”; for DGNLDSYDN [phage clone displaying DGNLDSYDN]: “binds”.
For the molecule ASSSVDDMA [phage clone displaying ASSSVDDMA], the binding result was “binds”.
For ESSVDMIGD [phage clone displaying ESSVDMIGD], the binding result was “binds”.
For the molecule AYESSVDDN [phage clone displaying AYESSVDDN], the binding result is on record as “binds”.
On to GYETSLDSN [phage clone displaying GYETSLDSN], for which the binding result was “binds”.
On the same count and under the same terms, the same measure for ESSVDLLDG [phage clone displaying ESSVDLLDG]: “binds”; for GSSLDVTSE [phage clone displaying GSSLDVTSE]: “binds”.
Consider VSNLDTTND [phage clone displaying VSNLDTTND], for which the binding result is “binds”.
On the same count and under the same terms, the value for AISSVDSMG [phage clone displaying AISSVDSMG] was “binds”.
Take GSMNLDVQS [phage clone displaying GSMNLDVQS]: the binding result is listed as “binds”.
As to GGNLDVNVG [phage clone displaying GGNLDVNVG], the binding result is on record as “binds”.

The values are drawn from PMC3433589 (Biochemistry, 2012).
